For assay [1], the system named is sFasL-induced death of motoneurons. The assay can be described thus: AAV-delivered COMP chimeric receptors: rescue of motoneurons from sFasL-induced death. It counts as cell-based, mice. As to conditions: AAV vectors; sFasL 50 ng/ml; survival 48 h later. The protocol: (§1) FIG. 7 evidences the efficiency of recombinant proteins IFNγR1-COMP, DcR3-COMP, and Fas-COMP (in the form of AAV viral vectors at 1.5×10^5 TU/ml), to interfere with death induced by their respective ligand(s) or cytokine (sFasL (50 ng/ml), sLight (50 ng/ml), IFNγ (250 ng/ml)), in contrast to the negative control (COMP). Cell survival was determined 48 h later as described in Example 4. All values are expressed as the means±S.D of three independent experiments.
(§2) The functionality of the dominant negatives in inhibiting Fas and LIGHT/IFNγ-induced death was evaluated in an isolated motoneurons culture system as described in Example 2. Embryonic motoneurons isolated from spinal cords of E12.5 CD1 mice were cultured for 6 h and then infected with 50 TU/ml of indicated with AAV-IFNγR1-COMP, AAV-DcR3-COMP, AAV-Fas-COMP, or AAV-COMP viral vectors. After 6 h of incubation the culture medium was replaced and motoneurons were treated 48 h later (when indicated) with effective doses of either sFasL (50 ng/ml), sLight (50 ng/ml) or IFNγ (250 ng/ml). Forty-eight hours later, survival was determined by direct counting of motoneurons (FIG. 7). […] On the other hand, IFNγ-triggered death was blocked by IFNγR1-COMP.

The test system of assay [2] is sLIGHT-induced death of motoneurons. Put plainly: AAV-delivered COMP chimeric receptors: rescue of motoneurons from sLIGHT-induced death. Type of assay: cell-based, mice. Conditions: AAV vectors; sLight 50 ng/ml; survival 48 h later. The protocol: as §1, §2
The test system of assay [3] is IFNγ-triggered death of motoneurons. Put plainly: AAV-delivered COMP chimeric receptors: rescue of motoneurons from IFNγ-triggered death. As to conditions: AAV vectors; IFNγ 250 ng/ml; survival 48 h later. It counts as cell-based, mice. The protocol: as §1, §2
The subject of assay [4] is corresponding recombinant ligand (recombinant soluble LIGHT and IFNγ). Put plainly: immunoprecipitation of ligand-receptor complex from conditioned media of transduced glioma cell lines. It counts as binding. Conditions: anti-HA immunoprecipitation, immunoblot. The protocol: The constructs were checked by sequencing. The efficacy of IFNγR1-COMP, DcR3-COMP, Fas-COMP, and COMP to be efficiently secreted by astrocytes and to specifically interact with their respective ligands were evaluated in vitro by immunoprecipitation assays. Glioma cell lines were transduced with vectors encoding IFNγR1-COMP, DcR3-COMP, Fas-COMP, or COMP and conditioned media collected. Recombinant soluble LIGHT and IFNγ were added to different conditioned media. Immunoprecipitation of ligand-receptor complex were performed using anti-hemagglutinin (HA) tag antibody, since these constructs include an HA tag at their C-terminus, and immunocomplexes analysed by SDS-PAGE followed by immunoblotting with antibodies to LIGHT, IFNγR1 and IFNγ.
In general terms: A western blot detects proteins with antibodies after separation by electrophoresis.

The test system of a further assay is LIGHT. Put plainly: expression levels of LIGHT in motoneurons exposed to IFNγ. It counts as cell-based, mouse. The protocol:
Neurons were plated at the density of 20,000 cells/cm^2 in 6-cm diameter dishes containing corresponding complemented Neurobasal medium (see above). Sodium dodecyl sulfate polyacrylamide gel electrophoresis (SDS-PAGE) and Western blotting were carried out on neurons, astrocytes (duplicates) and dissected lumbar spinal cords using protocol previously described in Raoul et al., 2005, above. Primary antibodies were anti-LT-βR (sc-8377, Santa Cruz Biotechnology, 1:500), anti-LIGHT (sc-28880, Santa Cruz Biotechnology, 1:500), anti-IFNγ (sc-52557, Santa Cruz Biotechnology, 1:500), anti-IFNγR1 (559911, BD Biosciences, 1:500), anti-IFNγR2 (ab31606, Abcam, 1:2000), anti-α-tubulin (B-5-1-2, Sigma-Aldrich, 1:20,000), anti-actin (AC-40, Sigma-Aldrich, 1:20,000). Proteins were detected using horseradish peroxidase (HRP)-conjugated secondary antibodies and visualized with the chemiluminescent HRP substrate (Millipore). Where indicated, immunoblot images were quantified and normalized relative to the α-tubulin or actin levels using the NIH ImageJ software.

B1: COMP: negative control generated by deleting approximately 80% of the extra-cellular part of Fas (secreted COMP) (protein)
chain: PQPQPKPQPKPEPEGDLAPQMLRELQETNAALQDVRELLRHRVKEITFLKNTVMECDACGYPYDVPDYA
modifications: amino acid sequence of a coiled-coil domain of cartilage oligomeric matrix protein
As for B1, the “rescue of motoneurons from sFasL-induced death” value in assay [1] is listed as “did not interfere”. For the same molecule, the “rescue of motoneurons from sLIGHT-induced death” value in assay [2] is on record as “did not interfere”. Further, the “rescue of motoneurons from IFNγ-triggered death” value in assay [3] is “did not interfere”.

B2: IFNγR1-COMP: Extracellular part of IFNγR1 fused to COMP, HA-tagged (SEQ ID NO: 15), expressed from AAV vector (protein)
chain: MGPQAAAGRMILLVVLMLSAKVGSGALTSTEDPEPPSVPVPTNVLIKSYNLNPVVCWEYQNMSQTPIFTVQVKVYSGSWTDSCTNISDHCCNIYGQIMYPDVSAWARVKAKVGQKESDYARSKEFLMCLKGKVGPPGLEIRRKKEEQLSVLVFHPEVVVNGESQGTMFGDGSTCYTFDYTVYVEHNRSGEILHTKHTVEKEECNETLCELNISVSTLDSRYCISVDGISSFWQVRTEKSKDVCIPPFHDDRKERPQPQPQPKPQPKPEPEGDLAPQMLRELQETNAALQDVRELLRHRVKEITFLKNTVMECDACGYPYDVPDYA
modifications: HA tag; AAV-expressed; amino acid sequence of mouse IFN gamma R1-cartilage oligomeric matrix protein chimera
For B2, the “interaction with corresponding recombinant ligand (immunoprecipitation)” value in assay [4] is “effectively interact”. In assay [3], the “rescue of motoneurons from IFNγ-triggered death” value is “blocked”.

B3: DcR3-COMP: Extracellular part of DcR3 fused to COMP (SEQ ID NO: 17), decoy for both FasL and LIGHT, AAV-expressed (protein)
chain: MRALEGPGLSLLCLVLALPALLPVPAVRGVAETPTYPWRDAETGERLVCAQCPPGTFVQRPCRRDSPTTCGPCPPRHYTQFWNYLERCRYCNVLCGEREEEARACHATHNRACRCRTGFFAHAGFCLEHASCPPGAGVIAPGTPSQNTQCQPCPPGTFSASSSSSEQCQPHRNCTALGLALNVPGSSSHDTLCTSCTGFPLSTRVPGAEECERAVIDFVAFQDISIKRLQRLLQALEAPEGWGPTPRAGRAALQLKLRRRLTELLGAQDGALLVRLLQALRVARMPGLERSVRERFLPVHPQPQPKPQPKPEPEGDLAPQMLRELQETNAALQDVRELLRHRVKEITFLKNTVMECDACGYPYDVPDYA
modifications: AAV-expressed; Sequence for chimeric protein DcR3-COMP
On to B3, for which, in assay [4], the “interaction with corresponding recombinant ligand (immunoprecipitation)” value was “effectively interact”. Further, in assay [1], the “rescue of motoneurons from sFasL-induced death” value is “rescued”. Also, in assay [2], the “rescue of motoneurons from sLIGHT-induced death” value is recorded as “rescued”.

B4: IFNγ: Soluble mouse recombinant IFNγ (Calbiochem; PBL Biomedical laboratories) (protein, UniProt P01580 23-155, looked up)
Interferon gamma: HGTVIESLESLNNYFNSSGIDVEEKSLFLDIWRNWQKDGDMKILQSQIISFYLRLFEVLKDNQAISNNISVIESHLITTFFSNSKAKKDAFMSIAKFEVNNPQVQRQAFNELIRVVHQLLPESSLRKRKRSRC
On to B4, for which, in the assay with LIGHT, the “expression levels of LIGHT” value is recorded as “significantly enhancing”. In addition, the “cell-type restriction of the synergistic lethal effect of IFNγ on LIGHT-induced death” value in the assay with motoneurons (compared with cortical, hippocampal, sensory and striatal neurons) is “restricted to motoneurons”. Also, the death of motoneurons entry in the assay on motoneurons (cultured motoneurons, survival 48 h after treatment) is recorded as “about 50%”. The “effect on sFasL-induced death” value in the assay with motoneurons (motoneurons) is listed as “no effect”. In addition, the “effect on LIGHT killing effect” value in the assay on motoneurons (suboptimal dose of sLIGHT and increasing doses of IFNγ) is recorded as “substantially enhances”. For the same molecule, the “responsiveness of freshly isolated motoneurons to sLIGHT or agonistic anti-LT-βR antibodies” value in the assay on motoneurons (treated at 0, 24 or 72 h, IFNγ combined with sLIGHT or anti-LT-βR antibodies) was “responsive to sLIGHT or agonistic anti-LT-βR antibodies”.

(Values after patent US20120276114A1, “IFN-GAMMA INHIBITORS IN THE TREATMENT OF MOTONEURON DISEASES” (UNIVERSITE D'AIX-MARSEILLE, priority 2009, published 2012).)
